B1: Hypochlorite-treated glycosylated PAI-2 (PAI-2^G pre-treated with NaOCl) (natural protein, human, UniProt P05120 1-415, looked up)
chain: MEDLCVANTLFALNLFKHLAKASPTQNLFLSPWSISSTMAMVYMGSRGSTEDQMAKVLQFNEVGANAVTPMTPENFTSCGFMQQIQKGSYPDAILQAQAADKIHSSFRSLSSAINASTGNYLLESVNKLFGEKSASFREEYIRLCQKYYSSEPQAVDFLECAEEARKKINSWVKTQTKGKIPNLLPEGSVDGDTRMVLVNAVYFKGKWKTPFEKKLNGLYPFRVNSAQRTPVQMMYLREKLNIGYIEDLKAQILELPYAGDVSMFLLLPDEIADVSTGLELLESEITYDKLNKWTSKDKMAEDEVEVYIPQFKLEEHYELRSILRSMGMEDAFNKGRANFSGMSERNDLFLSEVFHQAMVDVNEEGTEAAAGTGGVMTGRTGHGGPQFVADHPFLFLIMHKITNCILFFGRFSSP
modifications: glycosylated; hypochlorite-modified: dityrosine cross-linkages, reactive thiols (cysteines) reduced by 62 ± 27% at 200 µM NaOCl; positions not given
notes: m1 after treatment with NaOCl; the dose differs between experiments (0-200 µM); also called hypochlorite-treated PAI-2^G; PAI-2^G OX200; source: bought: Biotech Australia (produced in CHO cells); incubated 2 h at 24 °C with up to 200 µM NaOCl, dialysed
B2: Hypochlorite-treated non-glycosylated PAI-2 (PAI-2^NG pre-treated with NaOCl) (natural protein, human, UniProt P05120 1-415, looked up)
chain: B1 chain
modifications: hypochlorite-modified: dityrosine cross-linkages, reactive thiols (cysteines) reduced by 75 ± 18% at 200 µM NaOCl; positions not given
notes: m2 after treatment with NaOCl; the dose differs between experiments (0-200 µM); also called hypochlorite-treated PAI-2^NG; PAI-2^NG OX200; source: bought: Biotech Australia (produced in E. coli); incubated 2 h at 24 °C with up to 200 µM NaOCl, dialysed

Biological target: the molecule itself
Test: native gel or EMSA; samples at the end of ThT assays (Aβ1-42 3 µM with PAI-2 pre-treated with 0-200 µM NaOCl, PBS, 28 °C) centrifuged at 24,000 x g, supernatant on 8% native PAGE, Western blot with anti-Aβ (W0-2) or anti-PAI-2

Row | Protein | binding result
1 | B1 | binds
2 | B2 | binds
